Assays:
[1] = biological target: human Mac-1 (integrin αMβ2, CD11b/CD18) (human) (UniProt P11215); test: flow cytometry, HEK293/Mac-1 cells (clone 1-4), PBS (Mock)
[2] = biological target: human Mac-1 (integrin αMβ2, CD11b/CD18) (human) (UniProt P11215); test: flow cytometry, HEK293/Mac-1 cells (clone 1-4), PBS/MnCl2 (Mn2+)
[3] = biological target: human Mac-1 (integrin αMβ2, CD11b/CD18) (human) (UniProt P11215); test: flow cytometry, HEK293/Mac-1 cells; MFI in PBS over MFI in PBS/MnCl2
[4] = biological target: human Mac-1 (integrin αMβ2, CD11b/CD18) (human) (UniProt P11215); test: flow cytometry, HEK293/Mac-1 cells, PBS (Mock), 10 µg/ml of this antibody; binding of reporter mAb m24 read
[5] = biological target: human Mac-1 (integrin αMβ2, CD11b/CD18) (human) (UniProt P11215); test: flow cytometry, HEK293/Mac-1 cells, PBS (Mock), 10 µg/ml of this antibody; binding of reporter mAb KIM127 read
[6] = biological target: human Mac-1 (integrin αMβ2, CD11b/CD18) (human) (UniProt P11215); test: flow cytometry, HEK293/Mac-1 cells, PBS/MnCl2 (Mn2+), 10 µg/ml of this antibody; binding of reporter mAb m24 read
[7] = biological target: human Mac-1 (integrin αMβ2, CD11b/CD18) (human) (UniProt P11215); test: flow cytometry, HEK293/Mac-1 cells, PBS/MnCl2 (Mn2+), 10 µg/ml of this antibody; binding of reporter mAb KIM127 read
[8] = biological target: human Mac-1 (integrin αMβ2, CD11b/CD18) (human) (UniProt P11215); test: flow cytometry, HEK293/Mac-1 cells, PBS (Mock); binding of reporter mAb m24 read; control IgG4, the reference set to 1
[9] = biological target: human Mac-1 (integrin αMβ2, CD11b/CD18) (human) (UniProt P11215); test: flow cytometry, HEK293/Mac-1 cells, PBS (Mock); binding of reporter mAb KIM127 read; control IgG4, the reference set to 1
[10] = biological target: human Mac-1 (integrin αMβ2, CD11b/CD18) (human) (UniProt P11215); test: flow cytometry, HEK293/Mac-1 cells, PBS/MnCl2 (Mn2+); binding of reporter mAb m24 read; control IgG4, the reference set to 1
[11] = biological target: human Mac-1 (integrin αMβ2, CD11b/CD18) (human) (UniProt P11215); test: flow cytometry, HEK293/Mac-1 cells, PBS/MnCl2 (Mn2+); binding of reporter mAb KIM127 read; control IgG4, the reference set to 1
[12] = biological target: human Mac-1 (integrin αMβ2, CD11b/CD18) (human) (UniProt P11215); test: flow cytometry, HEK293/Mac-1 cells (clone 1-4), PBS (Mock); isotype control
[13] = biological target: human Mac-1 (integrin αMβ2, CD11b/CD18) (human) (UniProt P11215); test: flow cytometry, HEK293/Mac-1 cells (clone 1-4), PBS/MnCl2 (Mn2+); isotype control
[14] = biological target: human Mac-1 (integrin αMβ2, CD11b/CD18) (human) (UniProt P11215); test: flow cytometry, HEK293/Mac-1 cells; MFI in PBS over MFI in PBS/MnCl2; isotype control

Row | Mock MFI [1] [MFI] | Mn^2+ MFI [2] [MFI] | Mock/Mn^2+ Ratio [3] | m24 (Expression relative to IgG4) (relative to IgG4) [4] | KIM127 (Expression relative to IgG4) (relative to IgG4) [5] | m24 (Expression relative to IgG4) (relative to IgG4) [6] | KIM127 (Expression relative to IgG4) (relative to IgG4) [7] | Substance | further results
1 | 805000 | 801000 | 1.01 | 0.66 | 0.94 | 0.66 | 0.75 | CD11b specific mAb (clone ICRF44) (antibody) | –
2 | – | – | – | – | – | – | – | IgG4 control (antibody) | m24 (Expression relative to IgG4) (relative to IgG4) [8]: 1; KIM127 (Expression relative to IgG4) (relative to IgG4) [9]: 1; m24 (Expression relative to IgG4) (relative to IgG4) [10]: 1; KIM127 (Expression relative to IgG4) (relative to IgG4) [11]: 1
3 | 143000 | 181000 | 0.79 | – | – | – | – | CD11b activation-sensing mAb (CBRM1/5) (antibody) | –
4 | – | – | – | 0.71 | 0.94 | 0.8 | 0.84 | M1/70 (antibody) | –
5 | – | – | – | – | – | – | – | isotype control IgG (antibody) | Mock MFI [12]: 941 MFI; Mn^2+ MFI [13]: 935 MFI; Mock/Mn^2+ Ratio [14]: 1.01
